The test system of this test is Kv2.1 K^+ currents. Description: Whole-cell patch clamp K+ currents in cortical neurons after DTDP. Format: cell-based, rat. The protocol:
For electrophysiological experiments, mixed cortical neuronal/glial cultures were prepared from embryonic day 16 (E16) Sprague-Dawley rats (Charles River Laboratories, Wilmington, Mass., USA). Donor rats were euthanized by gradual CO2 exposure. Cortices were dissociated with trypsin, and the resultant cell suspension, adjusted to 670,000 cells per well, was plated on glass coverslips in 6-well plates as described previously (Hartnett et al., J Neurochem 68, 1836-1845, 1997). Non-neuronal cell proliferation was inhibited after two weeks in culture with 1-2 μM cytosine arabinoside, and cultures utilized at three to four weeks in vitro. For neuronal transfection, cells were treated for five hours in serum-free medium with 2 μL LIPOFECTAMINE™ 2000 (Invitrogen, Carlsbad, Calif.), 50 μL Optimem (GIBCO, Grand Island, N.Y.), and 1.5 μg DNA per well. […]
Current recordings were performed on eGFP-positive co-transfected neurons or CHO cells using the whole-cell patch clamp configuration technique as described previously (McLaughlin et al., J Neurosci 21, 3303-3311, 2001). […] To determine current density values, steady-state current amplitudes were measured 180 msec after the initiation of the +10 mV step and normalized to cell capacitance. […]
For orientation: In patch-clamp work, channel activity is measured electrically.

B1: C1a: rat Kv2.1 C1a peptide, residues 411-522 of SEQ ID NO: 3, expressed from a plasmid (protein, listed as Rattus norvegicus)
chain: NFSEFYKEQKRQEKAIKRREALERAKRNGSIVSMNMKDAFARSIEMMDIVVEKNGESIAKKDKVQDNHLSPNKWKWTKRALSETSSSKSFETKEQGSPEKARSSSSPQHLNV
B1: the “effect on DTDP-induced enhancement of K+ current densities” value (cortical neurons transfected with C1a-expressing plasmid, 30 μM DTDP 10 min, +10 mV step) was “failed to exhibit the enhanced K^+ current densities normally elicited by DTDP”. Further, the “effect on non-apoptotic, basal delayed-rectifier K+ currents” value (cortical neurons, without DTDP) is listed as “had no effect”.

The values are drawn from patent publication US9932382B2, “Kv2.1 channel-derived peptides and methods of use” (University of Pittsburgh—Of the Commonwealth System of …, priority 2014, dated 2018).
